Results published in patent US8367615B2, “Stimulation of neuron regeneration by secretory leukocyte protease inhibitor” (Research Foundation of City University of New York, priority 2006, dated 2013).

B1: secretory leukocyte protease inhibitor (protein, UniProt P03973 26-132, looked up)
Antileukoproteinase: SGKSFKAGVCPPKKSAQCLRYKKPECQSDWQCPGKKRCCPDTCGIKCLDPVDTPNPTRRKPGKCPVTYGQCLMLNPPNFCEMDGQCKRDLKCCMGMCGKSCVSPVKA

Experiments:
DRG neurons = test: Microarray analysis of gene expression in DRG neurons; format: cell-based; details: DRG neurons that received dbcAMP
From the text: The effects of cAMP were the result of its ability to induce gene transcription.

older neurons = details: cAMP levels elevated by treatment, previously established (WO 01/85981); cited from earlier work
[1] = tested on: transected nerve fibers in the spinal cord; details: in vivo injection; previously established (WO 01/85981); cited from earlier work
[2] = tested on: dorsal root ganglia (DRG) neurons; test: Neurite outgrowth of DRG neurons on MAG-expressing CHO cell monolayers; format: cell-based, rat
Method: FIGS. 1A and 1B are a panel of four photographs and a bar graph, respectively, showing that SLPI reverses inhibition by MAG for dorsal root ganglia (“DRG”) neurons. DRG neurons from post-natal day 6 rats were treated with 2, 5, or 10 μg/ml SLPI, plated onto monolayers of either control or MAG-expressing Chinese hamster ovary (“CHO”) cells, and incubated for 16 hours. Neurons were stained for βIII tubulin and neurite length was quantified using the METAMORPH image analysis software. Data are presented ±SEM.

cortical neurons = test: Neurite outgrowth of cortical neurons on central nervous system myelin; format: cell-based; details: 5 and 10 μg/ml, post-natal day 1 rat cortical neurons on CNS myelin
Method: FIGS. 2A and 2B are a panel of four photographs and a bar graph, respectively, showing that SLPI enhances neurite outgrowth on myelin for cortical neurons. Cortical neurons from post-natal day 1 rats were treated with 1 mM dibutyrl cAMP (dbcAMP) and 5 or 10 μg/ml SLPI, and plated onto 8-well chamber slides coated with central nervous system myelin (1 μg per well). Neurons were incubated for 24 hours and immunostained for βIII tubulin. The bar graph depicts average neurite length ±SEM.
Unlike DRG neurons, cortical neurons were inhibited by MAG and myelin at post-natal day 1.

adult DRG neurons = test: In vivo intrathecal delivery, then neurite outgrowth of adult DRG neurons on MAG-expressing CHO cells; parameters: species or system rat; details: 2 and 5 μg/kg/hr intrathecal for 24 hours in adult rats, neurons plated on MAG-expressing CHO cells
Method: FIGS. 3A and 3B are a panel of four photographs and a bar graph, respectively, showing that in vivo delivery of SLPI overcomes MAG inhibition for adult DRG neurons. DRG neurons from adult rats that received infusion of 1, 2, or 5 μg/kg/hr SLPI into the spinal cord for 24 hours were plated onto control or MAG-expressing CHO cells. Neurons were incubated for 16 hours and stained for βIII tubulin. The bar graph depicts average neurite length ±SEM.
SLPI was delivered to the spinal cord by a pump.

optic nerve = test: Optic nerve crush, GAP-43 staining of regenerating axons; format: in vivo, rat; details: single intravitreal injection of 10 micrograms after optic nerve crush; two weeks; adult male Fischer rats
Method: SLPI's ability to promote axonal regeneration in vivo in the optic nerve was investigated. Adult male Fischer rats (200-300 g, Charles River Laboratories) were anesthetized with isofluorane and placed in a stereotaxic frame. Optic nerve crush was performed as follows. The right optic nerve was exposed and the meninges were removed. The nerve was then crushed for 10 seconds with fine forceps at a distance of 2 mm behind the eye. Special care was taken to avoid injury to the opthalmic artery. After closing the incision, the animal received a single intravitreal injection of either 5 microliters sterile saline or 10 micrograms of recombinant human SLPI (R&D Systems; 2 micrograms/microliter in 5 microliters sterile saline) in the right eye. After a two-week post-surgical survival period, the animals were sacrificed by transcardial perfusion with 4% paraformaldehyde and the optic nerves were dissected. Nerves were sectioned at a thickness of 20 microns and thaw-mounted onto gelatin-coated slides. Sections were immunostained for GAP-43 using a polyclonal sheep anti-GAP-43 antibody diluted 1:1000 in a solution of 5% rabbit serum, 2% BSA, and 0.1% Tween in Tris-buffered saline (TBS). […] Slides were coverslipped with Permafluor mounting medium (Thermo) and viewed under fluorescence. […]

[3] = Tolerability on administration to live animals; format: in vivo

Row | Molecule | expression of SLPI (DRG neurons) | inhibition by MAG and myelin of nerve fiber growth (older neurons) | regeneration of transected nerve fibers in the spinal cord [1] | neurite outgrowth on MAG, most effective concentrations ([2]; 5 and 10 μg/ml, post-natal day 6 rat DRG neurons on MAG-expressing CHO cells) | neurite outgrowth on MAG ([2]; post-natal day 6 rat DRG neurons treated with 2, 5 or 10 μg/ml, on MAG-expressing CHO cells, 16 hours) | neurite outgrowth on myelin, effect compared with 1 mM dbcAMP (cortical neurons) | neurite outgrowth on myelin (cortical neurons; 24 hours) | MAG inhibition of DRG neurons after intrathecal delivery (adult DRG neurons) | neurite outgrowth after intrathecal delivery (adult DRG neurons; 16 hours) | GAP-43 positive axons in the crushed optic nerve (optic nerve) | axons extending beyond the lesion site (optic nerve) | toxicity when administered to live animals [3]
1 | CCCC(=O)Nc1ncnc2c1ncn2[C@@H]1O[C@@H]2COP(=O)(O)O[C@H]2[C@H]1OC(=O)CCC [dbcAMP, dibutyrl cAMP] | greatly increased | inhibition was reversed | led to regeneration | – | – | – | – | – | – | – | – | –
2 | B1 | – | – | – | most extensive growth | significantly increased | equivalent to that seen with dibutyryl AMP (dbcAMP) | significantly increased | blocks MAG inhibition | significant increases | numerous GAP-43 positive axons | several of them extend beyond the lesion site | non-toxic
